From patent US20090136516A1 (DUKE UNIVERSITY, published 2009)

How the values were obtained:
human CD20 [1] = biological target: T1, human CD20 (human, UniProt P11836 1-297); assay: indirect immunofluorescence, flow cytometry, human blood B cells, saturating mAb
T1 construct: whole, on cells; also called cell surface CD20
T1 sequence (looked up): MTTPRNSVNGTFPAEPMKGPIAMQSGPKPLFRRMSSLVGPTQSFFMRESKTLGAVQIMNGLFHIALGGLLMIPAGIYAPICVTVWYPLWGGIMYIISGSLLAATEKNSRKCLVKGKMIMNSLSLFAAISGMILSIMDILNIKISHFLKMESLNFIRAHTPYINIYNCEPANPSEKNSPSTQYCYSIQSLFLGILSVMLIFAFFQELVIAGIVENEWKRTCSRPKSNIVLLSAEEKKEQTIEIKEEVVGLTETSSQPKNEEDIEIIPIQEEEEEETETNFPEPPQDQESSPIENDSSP
Procedure: (§1) Reactivity of human blood lymphocytes and the Raji, BJAB or DHL-4 B lymphoblastoid cell lines with anti-CD20 monoclonal antibodies at saturating concentrations or with secondary antibody alone (control). The anti-CD20 monoclonal antibodies were used at concentrations that were determined to be saturating and that gave optimal staining. 1F5, B9E9 and 1H4 (IgG2a) monoclonal antibodies were used as ascites fluid diluted 1:200. HB20-3, -4 and -25 monoclonal antibodies were used as tissue culture supernatant fluid. B1 monoclonal antibody was used at either 10 μg/mL of purified monoclonal antibody or as tissue culture supernatant fluid. In all cases, monoclonal antibody staining was visualized using PE-conjugated isotype-specific secondary antibodies with flow cytometry analysis. Values represent the mean linear fluorescence intensity of staining for each B cell population as determined by flow cytometry analysis. Results are representative of those obtained in ≧3 experiments.

human CD20 [2] = biological target: T1, human CD20; assay: indirect immunofluorescence, flow cytometry, DHL-4 cells, saturating mAb
Procedure: as §1

human CD20 [3] = biological target: T1, human CD20; assay: indirect immunofluorescence, flow cytometry, Raji cells, saturating mAb
Procedure: as §1

human CD20 [4] = biological target: T1, human CD20; assay: indirect immunofluorescence, flow cytometry, BJAB cells, saturating mAb
Procedure: as §1

mouse CD20 = biological target: T2, mouse CD20 (mouse, UniProt P19437 1-291); assay: flow cytometry, mouse spleen CD19+ B cells, mAb at 0.5 µg/mL, isotype-specific secondary antibody
T2 construct: whole, on cells; Endogenous mouse CD20 on primary B cells; also called cell-surface CD20
T2 sequence (looked up): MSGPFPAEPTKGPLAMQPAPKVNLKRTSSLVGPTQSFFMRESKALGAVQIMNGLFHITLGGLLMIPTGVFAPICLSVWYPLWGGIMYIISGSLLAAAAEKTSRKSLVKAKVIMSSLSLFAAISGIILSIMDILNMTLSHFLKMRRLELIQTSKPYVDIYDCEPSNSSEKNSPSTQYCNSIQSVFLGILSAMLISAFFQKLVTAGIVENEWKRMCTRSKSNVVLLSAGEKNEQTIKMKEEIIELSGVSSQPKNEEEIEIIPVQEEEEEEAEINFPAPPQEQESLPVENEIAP
Procedure: Twelve mouse anti-mouse CD20 monoclonal antibodies, with representatives of each IgG isotype, were assessed for their ability to bind B cells and deplete them in vivo. Each monoclonal antibody reacted uniformly with CD19⁺ primary B cells in vitro with characteristic mean fluorescence intensities that were independent of monoclonal antibody isotype (FIG. 6A). When monoclonal antibody reactivity with primary B cells was assessed over a range of monoclonal antibody concentrations, most monoclonal antibodies reached saturating levels of staining when used at concentrations between 1-10 μg/mL (FIG. 6B). […] When all monoclonal antibodies were used at 0.5 μg/mL, each monoclonal antibody reacted uniformly with CD19⁺ primary B cells with characteristic low to high mean fluorescence intensities (FIG. 6C, Table 5). Similar results were obtained using a mouse CD20 cDNA-transfected pre-B cell line with anti-mouse Ig secondary antibody. Based on this analysis, the MB20-1 monoclonal antibody represented monoclonal antibodies with the lowest relative affinity/avidity, while the MB20-18 monoclonal antibody reacted strongly with B cells and stained B cells at the highest levels of all 12 anti-CD20 monoclonal antibodies (Table 5).

Molecule: B1 anti-CD20 monoclonal antibody
- mean linear fluorescence intensity (mean linear fluorescence intensity) (human CD20 [1]): 277
- mean linear fluorescence intensity (mean linear fluorescence intensity) (human CD20 [2]): 486
- mean linear fluorescence intensity (mean linear fluorescence intensity) (human CD20 [3]): 944
- mean linear fluorescence intensity (mean linear fluorescence intensity) (human CD20 [4]): 700

B1: MB20-1 monoclonal antibody (antibody, V domains shown)
VH: EVQLQESGGGLVQPGGSLKLSCAASGFTFSDYGMAWVRQAPRKGPEWVAFISNLAYSIYYADTVTGRFTISRENAKNTLYLEMSSLRSEDTAMYFCTRTGYYALDYWGQGTSVTVSS
VL: NIMMTQSPSSLAVSAGEKVTMRCKSSQSVLYSSKRKNYLAWYQQKPGKSPTLLIYWASTRESGVPDRFTGSGSGTDFTLTITSVQAEDLAVYYCHQYLSSFTFGGGTKLEIKR
notes: Mouse anti-mouse CD20 hybridoma antibody, IgG1; also called MB20-01
- B cell reactivity (mean linear fluorescence intensity) (mouse CD20): 69 mean linear fluorescence intensity

B2: MB20-18 monoclonal antibody (antibody, V domains shown)
VH: EVQLQESGLDLVKPGASVKISCKASGYTFTDYYMKWVKQSHGKSLDWIGDINPNNGDIIYNQKFEGKATLTVDKSSSTAYMELRSLTSEDSAVYYCARERFAYWGQGTLVTVSA
VL: SIVMTQTPKFLLVSTGDRVTITCKASQTVTNDLAWYQQKPGQSPKLLIYYASNRYTGVPDRFTGSGYGTDFTFTINTVQAEDLAVYFCQQDYSSPLTFGAGTKLELKR
notes: Mouse anti-mouse CD20 hybridoma antibody, IgG2b
- B cell reactivity (mean linear fluorescence intensity) (mouse CD20): 729 mean linear fluorescence intensity

B3: MB20-13 monoclonal antibody (antibody, V domains shown)
VH: EVQLQESGGGLVQPGGSLKLSCAASGFTFSDYGMAWVRQAPRKGPEWVAFISNLAYSIYYADTVTGRFTISRENAKNTLYLEMSSLRSEDTAMYFCTRTGYYALDYWGQGTSVTVSS
VL: EIVLAQSPTTTAASPGEKITITCSASSSITSNYLHWYQQKPGFSPKLLIYRTSNLASGVPARFSGSGSGTSYSLTIGTMEAEDVATYYCQQGSSKTLTFGAGTKLELKR
notes: Mouse anti-mouse CD20 hybridoma antibody, IgG3
- B cell reactivity (mean linear fluorescence intensity) (mouse CD20): 603 mean linear fluorescence intensity

B4: HB20-3 monoclonal antibody (antibody, V domains shown)
VH: EVQLQESGAELVKPGASVKMSCKASGFTFTNYNMHWLKQTPGQGLEWIGAIYPENGDTSYNQKFKGKATLTADKASSTAYMHLSSLTSEDSAVYFCARFYYYGSYYGAMDYWGQGTSVTVSS
VL: DIQMTQSPASLSASVGETVTITCRASGNIHNYLAWYQQKQGKSPQLLVYNAKTLADGVPSRFSGSGSGTQFSLKINSLQPEDFGSYYCQHFWSTPWTFGGGTKLEIKR
notes: Used as tissue culture supernatant; also called HB20-03; HB13c
- mean linear fluorescence intensity (human CD20 [1]): 469 mean linear fluorescence intensity
- mean linear fluorescence intensity (human CD20 [2]): 765 mean linear fluorescence intensity
- mean linear fluorescence intensity (human CD20 [3]): 2220 mean linear fluorescence intensity
- mean linear fluorescence intensity (human CD20 [4]): 1200 mean linear fluorescence intensity

B5: HB20-4 monoclonal antibody (antibody, V domains shown)
VH: EVQLQESGAELVKPGASVKMSCKASGFTFTNYNMHWVKQTPGQGLEWIGAIYPENGDTSYNQRFKGKATLTADKSSSTAYMHLSSLTSEDTAVYFCARFYYYGSYYGALDYWGQGTSVTVSS
VL: DIQMTQSPASLSASVGETVTITCRASGSIHNYLAWYQQKLGKSPQLLVYNAKTLADGVPSRFSGSGSGTQFSLKINSLQPEDFGSYYCQHFWSIPWTFGGGTKLEIKR
notes: Used as tissue culture supernatant; also called HB20-04; HB13d
- mean linear fluorescence intensity (human CD20 [1]): 397 mean linear fluorescence intensity
- mean linear fluorescence intensity (human CD20 [2]): 578 mean linear fluorescence intensity
- mean linear fluorescence intensity (human CD20 [3]): 1580 mean linear fluorescence intensity
- mean linear fluorescence intensity (human CD20 [4]): 1100 mean linear fluorescence intensity

B6: MB20-8 monoclonal antibody (antibody, V domains shown)
VH: EVQLQESGPDLVKPGASVKISCKASGYTFTDYYMKWVKQSHGKSLDWIGDINPNNGDIIYNQKFEGKATLTVDKSSSTAYMELRSLTSEDSAVYYCARERFAYWGQGTLVTVSA
VL: EIVLTQSPTTMAASPGEKITITCSVSSNIRSNYLHWYQQKPGFSPKLLIYRTSNLASGVPARFSGSGSGTSYSLTIGTMKAEDVATYYCQQGSSIPLTFGAGTKLELKR
notes: Mouse anti-mouse CD20 hybridoma antibody, IgG2b; also called MB20-08
- B cell reactivity (mean linear fluorescence intensity) (mouse CD20): 240 mean linear fluorescence intensity

B7: MB20-2 monoclonal antibody (antibody, V domains shown)
VH: EVQLQESGPELVKPGASVKISCKASGYMFTDYYIKWVKQSHGKSLEWIGDINPNNGDTIYNQKFKGKATLTVDKSSNTAYMDLRSLTSEDSAVYYCARERFAYWGQGTLVTVSA
VL: EIVLTQSPTTMAASPGEKITITCSVSSSIRSNYLHWYQQKPGFSPKLLIYRTSNLASGVPARFSGSGSGTSYSLTVATMEAEDVATYYCQQGSSIPLTFGAGTKLELKR
notes: Mouse anti-mouse CD20 hybridoma antibody, IgG1; also called MB20-02
- B cell reactivity (mean linear fluorescence intensity) (mouse CD20): 209 mean linear fluorescence intensity

B8: MB20-7 monoclonal antibody (antibody, V domains shown)
VH: EVQLQESGPDLVKPGASVKISCKASGYMFTDYYMKWVKQSHGKSLEWIGDINPNNGDTTYNQKFEGKATLTVDKSSSTAYMELRSLTSEDSAVYYCARERFAYWGQGTLVTVSA
VL: ELVLTQSPTTKAASPGEKITITCSVSSSIRSNYLHWYQQRPGFSPKLLIYRTSNLASGVPARFSGSGSGTSYSLTIGTMEAEDVATYYCQQGSSLPLTFGAGTKLELKR
notes: Mouse anti-mouse CD20 hybridoma antibody, IgG2b; also called MB20-07
- B cell reactivity (mean linear fluorescence intensity) (mouse CD20): 525 mean linear fluorescence intensity

B9: HB20-25 monoclonal antibody (antibody, V domains shown)
VH: EVQLQESGAELVKPGASVKMSCKASGFRFTNYNLHWVKQTPGQGLEWIGAIYPGNGETSYNQKFKGKATLTADKSSSTAYMQLRSLTSGDSAVYYCARFYYYGSSYGAMDYWGQGTSVTVSS
VL: DIQMTQSPASLSVSVGETVTITCRASENIYSNLAWYQQKQGKSPQLLVYAATNLADGVPSRFSGSGSGTQYSLKINSLQSEDFGSYYCQHFWGIPWTFGGGTKLEIKR
notes: Used as tissue culture supernatant
- mean linear fluorescence intensity (human CD20 [1]): 227 mean linear fluorescence intensity
- mean linear fluorescence intensity (human CD20 [2]): 514 mean linear fluorescence intensity
- mean linear fluorescence intensity (human CD20 [3]): 1350 mean linear fluorescence intensity
- mean linear fluorescence intensity (human CD20 [4]): 849 mean linear fluorescence intensity

B10: MB20-14 monoclonal antibody (antibody, V domains shown)
VH: EVQLQESGPELVKPGASVKISCKASGYMFTDYYIKWVKQSHGKSLEWIGDINPNNGDTIYNQKFKGKATLTVDKSSNTAYMDLRILTSEDSAVYYCARERFAYWGQGTLVTVSA
VL: EIVLTQSPTTMAASPGEKITITCSVSSSIRSNYLHWYQQKPGFSPKLLIYRTSNLASGVPARFSGSGSGTSYSLTVATMEAEDVATYYCQQGSSIPLTFGAGTKLELKR
notes: Mouse anti-mouse CD20 hybridoma antibody, IgG1
- B cell reactivity (mean linear fluorescence intensity) (mouse CD20): 166 mean linear fluorescence intensity

B11: 1F5 anti-CD20 monoclonal antibody (antibody, V domains shown)
VH: QVQLRQPGAELVKPGASVKMSCKASGYTFTSYNMHWVKQTPGQGLEWIGAIYPGNGDTSYNQKFKGKATLTADKSSSTAYMQLSSLTSEDSAVYYCARSHYGSNYVDYFDYWGQGTTLTVSS
VL: DIVLSQSPAILSASPGEKVTMTCRASSSLSFMHWYQQKPGSSPKPWIYATSNLASGVPARFSGSGSGTSYSLTISRVEAEDAATYFCHQWSSNPLTFGAGTKLELK
- mean linear fluorescence intensity (human CD20 [1]): 104 mean linear fluorescence intensity
- mean linear fluorescence intensity (human CD20 [2]): 169 mean linear fluorescence intensity
- mean linear fluorescence intensity (human CD20 [3]): 455 mean linear fluorescence intensity
- mean linear fluorescence intensity (human CD20 [4]): 386 mean linear fluorescence intensity

B12: B9E9 anti-CD20 monoclonal antibody (antibody, V domains shown)
VH: QVQLVQSGAELVKPGASVKMSCKASGYTFTSYNMHWVKQTPGQGLEWIGAIYPGNGDTSYNQKFKGKATLTADKSSSTAYMQLSSLTSEDSAVYYCARAQLRPNYWYFDVWGAGTTVTVSS
VL: DIVLSQSPAILSASPGEKVTMTCRASSSVSYMHWYQQKPGSSPKPWIYATSNLASGVPARFSGSGSGTSYSLTISRVEAEDAATYYCQQWISNPPTFGAGTKLELK
- mean linear fluorescence intensity (human CD20 [1]): 112 mean linear fluorescence intensity
- mean linear fluorescence intensity (human CD20 [2]): 162 mean linear fluorescence intensity
- mean linear fluorescence intensity (human CD20 [3]): 438 mean linear fluorescence intensity
- mean linear fluorescence intensity (human CD20 [4]): 377 mean linear fluorescence intensity

B13: MB20-10 monoclonal antibody (antibody, V domains shown)
VH: EVQLQESGPDLVKPGASVKISCKASGYTFTDYYMKWVKQSHGKSLDWIGDINPNNGDIIYNQKFEGKATLTVDKSSSTAYMELRSLTSEDSAVYYCARERFAYWGQGTLVTVSA
VL: EIVLTQSPTTMAASPGEKITITCSVSSNIRSNYLHWYQQKPGFSPKLLIYRTSNLASGVPARFSGSGSGTSYSLTIGTMKAEDVATYYCQQGSSIPLTFGAGTKLELKR
notes: as for B2
- B cell reactivity (mean linear fluorescence intensity) (mouse CD20): 317 mean linear fluorescence intensity
